In CN1934266A:

Key:
Test in all cases: ELISA, growth factor coated at 10 μg/ml, antibody at 10 μg/ml, mean of duplicates
[1] = molecular target: TGF-b1 (Peprotech 100-21R) (UniProt P01137)
[2] = molecular target: TGF-a (R&D Systems 239-A) (UniProt P01135)
[3] = molecular target: 激活蛋白B (R&D Systems 659-AB) (UniProt P09529)
[4] = molecular target: BMP-7 (R&D Systems 354-BP) (UniProt P18075)
[5] = molecular target: 重组小鼠肌肉生长抑素(R&D systems，目录号788-G8/CF) (mouse) (UniProt O08689)
[6] = molecular target: IGF-1 (R&D Systems 291-G1) (UniProt P05019)
[7] = molecular target: 激活蛋白A (R&D Systems 338-AC) (UniProt P08476)
[8] = molecular target: BMP-2 (R&D Systems 355-BEC/CF) (UniProt P12643)
[9] = molecular target: 重组人GDF-11(Peprotech公司，目录号120-11) (human) (UniProt O95390)
[10] = molecular target: BMP-6 (R&D Systems 507-BP) (UniProt P22004)
[11] = molecular target: BMP-5 (R&D Systems 615-BM) (UniProt P22003)
[12] = molecular target: TGF-b2 (Peprotech 100-35) (UniProt P61812)
Chain of UniProt P61812 (P61812 303-414 limits assumed): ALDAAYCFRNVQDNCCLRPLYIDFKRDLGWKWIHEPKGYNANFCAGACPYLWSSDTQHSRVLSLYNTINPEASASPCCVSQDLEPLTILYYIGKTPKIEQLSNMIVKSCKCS

Chain of UniProt P01137 (P01137 279-390 limits assumed): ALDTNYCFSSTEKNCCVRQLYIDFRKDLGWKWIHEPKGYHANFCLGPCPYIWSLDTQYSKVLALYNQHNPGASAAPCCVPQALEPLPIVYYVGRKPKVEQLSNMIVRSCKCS
Chain of UniProt P22004 (P22004 382-513 limits assumed): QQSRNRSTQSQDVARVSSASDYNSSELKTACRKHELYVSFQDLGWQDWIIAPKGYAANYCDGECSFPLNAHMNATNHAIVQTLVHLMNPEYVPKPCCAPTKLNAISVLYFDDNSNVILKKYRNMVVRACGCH
Chain of UniProt P08476 (P08476 311-426 limits assumed): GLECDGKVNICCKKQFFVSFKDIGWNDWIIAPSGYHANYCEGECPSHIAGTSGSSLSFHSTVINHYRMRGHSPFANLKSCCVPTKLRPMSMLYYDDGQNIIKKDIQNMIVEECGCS
Chain of UniProt P22003 (P22003 317-454 limits assumed): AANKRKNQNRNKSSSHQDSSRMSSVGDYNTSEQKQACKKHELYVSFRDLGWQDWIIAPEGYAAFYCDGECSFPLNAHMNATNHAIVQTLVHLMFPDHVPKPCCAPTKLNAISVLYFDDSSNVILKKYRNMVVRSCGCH
Chain of UniProt O95390 (O95390 299-407 limits assumed): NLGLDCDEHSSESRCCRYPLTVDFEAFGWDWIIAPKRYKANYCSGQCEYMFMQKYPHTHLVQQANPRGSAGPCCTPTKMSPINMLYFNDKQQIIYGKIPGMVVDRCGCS
Chain of UniProt O08689 (O08689 268-376): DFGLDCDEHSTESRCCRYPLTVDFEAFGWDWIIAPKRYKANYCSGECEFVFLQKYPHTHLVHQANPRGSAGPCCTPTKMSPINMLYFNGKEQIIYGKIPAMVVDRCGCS
Chain of UniProt P01135 (P01135 40-89 limits assumed): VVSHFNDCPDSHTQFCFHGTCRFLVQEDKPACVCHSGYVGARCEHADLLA
Chain of UniProt P18075 (P18075 293-431 limits assumed): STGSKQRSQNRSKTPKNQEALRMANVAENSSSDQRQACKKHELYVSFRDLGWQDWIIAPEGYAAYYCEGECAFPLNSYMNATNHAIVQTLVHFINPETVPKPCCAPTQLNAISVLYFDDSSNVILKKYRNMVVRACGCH
Chain of UniProt P05019 (P05019 49-118 limits assumed): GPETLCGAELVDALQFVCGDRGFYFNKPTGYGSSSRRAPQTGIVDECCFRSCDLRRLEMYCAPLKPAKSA
Chain of UniProt P12643 (P12643 283-396 limits assumed): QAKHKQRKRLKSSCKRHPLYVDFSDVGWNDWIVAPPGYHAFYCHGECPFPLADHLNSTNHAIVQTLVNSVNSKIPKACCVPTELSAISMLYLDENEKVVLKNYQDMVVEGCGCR
Chain of UniProt P09529 (P09529 293-407 limits assumed): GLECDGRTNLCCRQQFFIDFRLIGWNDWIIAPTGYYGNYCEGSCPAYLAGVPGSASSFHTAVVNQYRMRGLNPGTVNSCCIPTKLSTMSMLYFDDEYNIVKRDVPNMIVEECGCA

平均吸光度 (OD 490 nm) [1]: 0.0425 OD 490 nm | 平均吸光度 (OD 490 nm) [2]: 0.0445 OD 490 nm | 平均吸光度 (OD 490 nm) [3]: 0.0485 OD 490 nm | 平均吸光度 (OD 490 nm) [4]: 0.042 OD 490 nm | 平均吸光度 (OD 490 nm) [5]: 2.94 OD 490 nm | 平均吸光度 (OD 490 nm) [6]: 0.045 OD 490 nm | 平均吸光度 (OD 490 nm) [7]: 0.049 OD 490 nm | 平均吸光度 (OD 490 nm) [8]: 0.0525 OD 490 nm | 平均吸光度 (OD 490 nm) [9]: 2.62 OD 490 nm | 平均吸光度 (OD 490 nm) [10]: 0.0745 OD 490 nm | 平均吸光度 (OD 490 nm) [11]: 0.038 OD 490 nm | 平均吸光度 (OD 490 nm) [12]: 0.0525 OD 490 nm
Substance: 多克隆抗肌肉生长抑素抗体(R&D Systems，目录号AF788) (antibody)
